Results published in US11472877 (Alector, dated 2022).

T1: human TREM2 on BWZ cells (human, UniProt Q9NZC2 19-230)
T1 construct: whole, on cells; not tied to the cell line; also called BWZ Human TREM2
T1 sequence (looked up): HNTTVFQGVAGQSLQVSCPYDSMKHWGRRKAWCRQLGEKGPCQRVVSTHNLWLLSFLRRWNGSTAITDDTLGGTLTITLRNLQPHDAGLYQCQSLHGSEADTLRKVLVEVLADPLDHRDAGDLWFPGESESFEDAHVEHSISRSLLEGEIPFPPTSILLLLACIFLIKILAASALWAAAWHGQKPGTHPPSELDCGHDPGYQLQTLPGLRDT

T2: mouse TREM2 on BWZ cells (mouse, UniProt Q99NH8 19-227)
T2 construct: whole, on cells; also called BWZ Mouse TREM2
T2 sequence (looked up): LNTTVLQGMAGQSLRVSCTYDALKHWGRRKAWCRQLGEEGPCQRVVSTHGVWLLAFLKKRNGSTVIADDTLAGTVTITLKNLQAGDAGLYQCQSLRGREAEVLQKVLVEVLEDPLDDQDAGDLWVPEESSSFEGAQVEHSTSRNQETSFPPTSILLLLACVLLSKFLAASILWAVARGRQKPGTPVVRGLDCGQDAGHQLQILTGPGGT


Key:
[1] = target: T1, human TREM2 on BWZ cells; assay: FACS, BWZ cells
[2] = target: T2, mouse TREM2 on BWZ cells; assay: FACS, BWZ cells

| Binder | binding result [1] | binding result [2] |
| --- | --- | --- |
| T1-58 (antibody, IgG1, V domains shown, huIgG1; also called TI-58; ADI-19133) VH: QLQLQESGPGLVKPSETLSLTCTVSGGSISSSSYYWGWIRQPPGKGLEWIGSIYYSGSTYYNPSLKSRVTISVDTSKNQFSLKLSSVTAADTAVYYCARQEYGDGYFDLWGRGTLVTVSS VL: not shown | no binding |  |
| T1-42 (antibody, IgG1, V domains shown, huIgG1; also called TI-42; ADI-19116) VH: QVQLVESGGGVVQPGRSLRLSCAASGFTFSSYGMHWVRQAPGKGLEWVAVIWYDGSNKGYADSVKGRFTISRDNSKNTLYLQMNSLRAEDTAVYYCARELMVTSGGWLYGMDVWGQGTTVTVSS VL: EIVMTQSPATLSVSPGERATLSCRASQSVSSNLAWYQQKPGQAPRLLIYGASTRATGIPARFSGSGSGTEFTLTISSLQSEDFAVYYCQQYNVHPPRTFGGGTKVEIK | no binding | no binding |
| T1-49 (antibody, IgG1, V domains shown, huIgG1; also called TI-49; ADI-19122) VH: QVQLVQSGAEVKKPGASVKVSCKASGYTFTSYYMHWVRQAPGQGLEWMGIINPSGGSTSYAQKFQGRVTMTRDTSTSTVYMELSSLRSEDTAVYYCAREAGSWLISTAFDIWGQGTMVTVSS VL: not shown |  | no binding |
| T1-9 (antibody, IgG1, V domains shown, huIgG1; also called TI-9; ADI-19076) VH: QVQLVQSGAEVKKPGASVKVSCKASGYTFTSYYMHWVRQAPGQGLEWMGIINPSGGSTSYAQKFQGRVTMTRDTSTSTVYMELSSLRSEDTAVYYCAREAGYDISSAFDIWGQGTMVTVSS VL: not shown | no binding | no binding |
| T1-53 (antibody, IgG1, V domains shown, huIgG1; also called TI-53; ADI-19128) VH: QVQLVQSGAEVKKPGASVKVSCKASGYTFTSYYIHWVRQAPGQGLEWMGIINPSGGSTSYAQKFQGRVTMTRDTSTSTVYMELSSLRSEDTAVYYCARESGYHVSTAFDIWGQGTMVTVSS VL: not shown | no binding | no binding |
| T1-6 (antibody, IgG1, V domains shown, huIgG1; also called TI-6; ADI-19072) VH: QVQLVQSGAEVKKPGASVKVSCKASGYTFTSYYMHWVRQAPGQGLEWMGVINPSGGSTSYAQKFQGRVTMTRDTSTSTVYMELSSLRSEDTAVYYCARESGHSYVSSFDPWGQGTLVTVSS VL: not shown | no binding | no binding |
| T1-39 (antibody, IgG1, V domains shown, huIgG1; also called TI-39; ADI-19113) VH: EVQLVESGGGLVKPGGSLRLSCAASGFTFSSYSMNWVRQAPGKGLEWVSSISSSSNYIYYADSVKGRFTISRDNAKNSLYLQMNSLRAEDTAVYYCARRGGSSSTGLLYWGQGTLVTVSS VL: DIQLTQSPSSVSASVGDRVTITCRASQDISSWLAWYQQKPGKAPKLLIYAASSLQSGVPSRFSGSGSGTDFTLTISSLQPEDFATYYCQQSLTHPTFGGGTKVEIK | no binding | no binding |
| T1-10 (antibody, IgG1, V domains shown, huIgG1; also called TI-10; ADI-19077) VH: QVQLVQSGAEVKKPGASVKVSCKASGYTFTSYYMHWVRQAPGQGLEWMGIINPSGGSTSYAQKFQGRVTMTRDTSTSTVYMELSSLRSEDTAVYYCAREGSGSWETLDVWGQGTMVTVSS VL: not shown | no binding | no binding |
| T1-8 (antibody, IgG1, V domains shown, huIgG1; also called TI-8; ADI-19074) VH: QVQLVQSGAEVKKPGASVKVSCKASGYTFTSYYMHWVRQAPGQGLEWMGIINPSGGSTSYAQKFQGRVTMTRDTSTSTVYMELSSLRSEDTAVYYCAREVSMTAASLDVWGQGTMVTVSS VL: not shown | no binding | no binding |
| T1-35 (antibody, IgG1, V domains shown, huIgG1; also called TI-35; ADI-19109) VH: QVQLVESGGGVVQPGRSLRLSCAASGFTFSSYGMHWVRQAPGKGLEWVAVISYDGSNKYYADSVKGRFTISRDNSKNTLYLQMNSLRAEDTAVYYCARPDYYSSRGVFDIWGQGTMVTVSS VL: not shown | no binding | no binding |

The next lines start with the values.

| binding result [1] | binding result [2] | Binder |
| --- | --- | --- |
| no binding | no binding | T1-37 (antibody, IgG1, V domains shown, huIgG1; also called TI-37; ADI-19111) VH: QVQLVESGGGVVQPGRSLRLSCAASGFTFSSYGMHWVRQAPGKGLEWVALIWYDGSNKYYADSVKGRFTISRDNSKNTLYLQMNSLRAEDTAVYYCAKGDYLDPLFDYWGQGTLVTVSS VL: EIVMTQSPATLSVSPGERATLSCRASQSVSSNLAWYQQKPGQAPRLLIYGASTRATGIPARFSGSGSGTEFTLTISSLQSEDFAVYYCQQYAYWPLTFGGGTKVEIK |
| no binding | no binding | T1-50 (antibody, IgG1, V domains shown, huIgG1; also called TI-50; ADI-19125) VH: QVQLVQSGAEVKKPGASVKVSCKASGYTFTSYYMHWVRQAPGQGLEWMGIINPGGGSTSYAQKFQGRVTMTRDTSTSTVYMELSSLRSEDTAVYYCAREAGTMSSAFDIWGQGTMVTVSS VL: not shown |
| no binding | no binding | T1-52 (antibody, IgG1, V domains shown, huIgG1; also called TI-52; ADI-19127) VH: QVQLVQSGAEVKKPGSSVKVSCKASGGTFSSYAISWVRQAPGQGLEWMGSIIPIFGTANYAQKFQGRVTITADESTSTAYMELSSLRSEDTAVYYCARDRGQYSSSWYGRMDVWGQGTTVTVSS VL: DIQMTQSPSTLSASVGDRVTITCRASQSISSWLAWYQQKPGKAPKLLIYKASSLESGVPSRFSGSGSGTEFTLTISSLQPDDFATYYCQQSSADSPFTFGGGTKVEIK |
| no binding | no binding | T1-44 (antibody, IgG1, V domains shown, huIgG1; also called TI-44; ADI-19119) VH: QVQLVQSGAEVKKPGASVKVSCKASGYTFTSYYMHWVRQAPGQGLEWMGVINPSGGSTSYAQKFQGRVTMTRDTSTSTVYMELSSLRSEDTAVYYCAREGSGYDESMDVWGQGTTVTVSS VL: not shown |
| no binding | no binding | T1-45 (antibody, IgG1, V domains shown, huIgG1; also called TI-45; ADI-19123) VH: QVQLVQSGAEVKKPGASVKVSCKASGYTFTSYYMHWVRQAPGQGLEWMGVINPSGGSTSYAQKFQGRVTMTRDTSTSTVYMELSSLRSEDTAVYYCAREGSGYDESMDVWGQGTTVTVSS VL: not shown |
| no binding | no binding | T1-48 (antibody, IgG1, V domains shown, huIgG1; also called TI-48; ADI-19121) VH: QVQLVQSGAEVKKPGASVKVSCKASGYTFTSYYMHWVRQAPGQGLEWMGVINPGGGSTSYAQKFQGRVTMTRDTSTSTVYMELSSLRSEDTAVYYCAREAGQTSSALDVWGQGTMVTVSS VL: not shown |
| no binding | no binding | T1-46 (antibody, IgG1, V domains shown, huIgG1; also called TI-46; ADI-19124) VH: QVQLVQSGAEVKKPGASVKVSCKASGYTFTSYYMHWVRQAPGQGLEWMGVINPSGGSTSYAQKFQGRVTMTRDTSTSTVYMELSSLRSEDTAVYYCAREGSGYDESMDVWGQGTTVTVSS VL: not shown |
| no binding | no binding | T1-40 (antibody, IgG1, V domains shown, huIgG1; also called TI-40; ADI-19114) VH: EVQLVESGGGLVKPGGSLRLSCAASGFTFSSYSMNWVRQAPGKGLEWVSSISSSSSYIYYADSVKGRFTISRDNAKNSLYLQMNSLRAEDTAVYYCARTRIDDSFDIWGQGTMVTVSS VL: not shown |
| no binding | no binding | T1-41 (antibody, IgG1, V domains shown, huIgG1; also called TI-41; ADI-19115) VH: not shown VL: DIQLTQSPSSVSASVGDRVTITCRASQDISSWLAWYQQKPGKAPKLLIYAASSLQSGVPSRFSGSGSGTDFTLTISSLQPEDFATYYCQQAVIHPPYTFGGGTKVEIK |
| no binding | no binding | T1-43 (antibody, IgG1, V domains shown, huIgG1; also called TI-43; ADI-19117) VH: QVQLVQSGAEVKKPGASVKVSCKASGYTFTSYYMHWVRQAPGQGLEWMGIINPSGGSTSYAQKFQGRVTMTRDTSTSTVYMELSSLRSEDTAVYYCAREAGNYYDIESAFDIWGQGTMVTVSS VL: not shown |
| no binding | no binding | T1-18 (antibody, IgG1, V domains shown, huIgG1; also called TI-18; ADI-19085) VH: EVQLVESGGGLVQPGRSLRLSCAASGFTFDDYAMHWVRQAPGKGLEWVSGISWNSGDIGYADSVKGRFTISRDNAKNTLYLQMNSLRAEDTALYYCAKGPRMVTHLDVWGQGTMVTVSS VL: DIQMTQSPSTLSASVGDRVTITCRASQSISSWLAWYQQKPGKAPKLLIYKASSLESGVPSRFSGSGSGTEFTLTISSLQPDDFATYYCQQDSIYPITFGGGTKVEIK |
| no binding | no binding | T1-51 (antibody, IgG1, V domains shown, huIgG1; also called TI-51; ADI-19126) VH: QVQLVQSGAEVKKPGSSVKVSCKASGGTFSSYAISWVRQAPGQGLEWMGSIIPIFGTANYAQKFQGRVTITADESTSTAYMELSSLRSEDTAVYYCARSGGYSSSWYGTGYDYWGQGTLVTVSS VL: DIQMTQSPSTLSASVGDRVTITCRASQSISSWLAWYQQKPGKAPKLLIYKASSLESGVPSRFSGSGSGTEFTLTISSLQPDDFATYYCQQFQSYPFTFGGGTKVEIK |
| no binding | no binding | T1-38 (antibody, IgG1, V domains shown, huIgG1; also called TI-38; ADI-19112) VH: QVQLVESGGGVVQPGRSLRLSCAASGLTFSSYGMHWVRQAPGKGLEWVAVISYDGSNKYYADSVKGRFTISRDNSKNTLYLQMNSLRAEDTAVYYCARERGTYYYASGWANWGQGTLVTVSS VL: not shown |
| no binding | no binding | T1-36 (antibody, IgG1, V domains shown, huIgG1; also called TI-36; ADI-19110) VH: QVQLVESGGGVVQPGRSLRLSCAASGFTFSSYGMHWVRQAPGKGLEWVAVISYDGSNKYYADSVKGRFTISRDNSKNTLYLQMNSLRAEDTAVYYCARPDYYSSRGVFDIWGQGTMVTVSS VL: not shown |
